Laboratory results published in PMC12259648.

Tests used:
[1] = target: 212579 H113HY (human); test: SPR; Biacore 1K+; antibody 212579 H113HY captured from culture supernatant without prior purification on anti-human IgG (Fc) on a CM5 chip; Phl p 5 injected at 1.875-60 nM; PBS with 0.02% Tween 20; 1:1 Langmuir model
[2] = target: 212579 T40HN, I53HV (human); test: SPR; Biacore 1K+; purified IgG captured (about 100 RU) on anti-human IgG (Fc) on a CM5 chip; Phl p 5 injected at 1.875-60 nM, 25 uL/min, 120 s, 1360 s dissociation; PBS with 0.02% Tween 20; 1:1 Langmuir model
[3] = target: 212579 E38HS (human); test: as above
[4] = target: 212579 I29LV, T40LA, V108LG (human); test: as above
[5] = target: 212579 G62HS (human); test: as above
[6] = target: 212579 T40HN, I53HV, H113HY (human); test: as above
[7] = target: 212579 T40HN (human); test: as above
[8] = target: 212579 I53HV (human); test: as above
[9] = target: 212579 T40HN, I29LV, T40LA, V108LG (human); test: as above
[10] = target: 212579 I53HV, I29LV, T40LA, V108LG (human); test: as above

**Q.** With Phl p 5.0101 (natural protein) as the substance, how does the Kd [1] read?
**A.** 1.4 nM

**Q.** And the koff [1]?
**A.** 0.00036 s⁻¹

**Q.** And the kon [1]?
**A.** 260000 M⁻¹ s⁻¹

**Q.** And the Kd [2]?
**A.** 0.56 nM

**Q.** And the koff [2]?
**A.** 0.00014 s⁻¹

**Q.** And the Kd [3]?
**A.** 9.9 nM

**Q.** What about the koff [3] of the same substance?
**A.** 0.00273 s⁻¹

**Q.** What about the kon [3] of the same substance?
**A.** 280000 M⁻¹ s⁻¹

**Q.** What about the Kd [4] of the same substance?
**A.** 1.5 nM

**Q.** And the koff [4]?
**A.** 0.00035 s⁻¹

**Q.** And the kon [4]?
**A.** 230000 M⁻¹ s⁻¹

**Q.** What about the Kd [5] of the same substance?
**A.** 0.27 nM

**Q.** What about the koff [5] of the same substance?
**A.** 0.00011 s⁻¹

**Q.** And the kon [5]?
**A.** 420000 M⁻¹ s⁻¹

**Q.** And the Kd [6]?
**A.** 0.92 nM

**Q.** And the koff [6]?
**A.** 0.00014 s⁻¹

**Q.** And the kon [6]?
**A.** 160000 M⁻¹ s⁻¹

**Q.** And the Kd [7]?
**A.** 0.49 nM

**Q.** What about the koff [7] of the same substance?
**A.** 0.00016 s⁻¹

**Q.** And the kon [7]?
**A.** 320000 M⁻¹ s⁻¹

**Q.** What about the Kd [8] of the same substance?
**A.** 0.31 nM

**Q.** And the koff [8]?
**A.** 0.00013 s⁻¹

**Q.** And the kon [8]?
**A.** 420000 M⁻¹ s⁻¹

**Q.** And the Kd [9]?
**A.** 4.3 nM

**Q.** What about the koff [9] of the same substance?
**A.** 0.0005 s⁻¹

**Q.** And the kon [9]?
**A.** 120000 M⁻¹ s⁻¹

**Q.** And the Kd [10]?
**A.** 1.5 nM

**Q.** And the koff [10]?
**A.** 0.00033 s⁻¹

**Q.** And the kon [10]?
**A.** 220000 M⁻¹ s⁻¹
